From patent US20070293656A1, “COLLAGEN BINDING PEPTIDES” (Epix Pharmaceuticals, Inc., priority 2005, published 2007) come the findings set out here.

Holding throughout (experiment): dried collagen assay
Assay [1] addresses human collagen type I (acid soluble, extracted from placenta, Sigma C7774) (human) (UniProt P02452).
In assay [2] the target is rat collagen (acid soluble, type I, rat tail, Upstate 08-115) (rat) (UniProt P02454).
Assay [3] addresses T1, human collagen type I (acid soluble, extracted from placenta, Sigma C7774) (human, UniProt P02452 162-1218; P08123 80-1119).
T1 construct: gelled and dried as a fibril film in the assay; also called dried human collagen; h-Collagen
The procedure: An additional 90 μL is reserved in a HPLC glass vial as a measure of the total concentration.

Bridge positions count the residues as written; N and C are the ends. Square brackets hold non-standard residues; d marks the D form. Primed or numbered codes have the meaning given here. Side chains are listed from the residue outwards. Ends that are not written are not given here. * marks the point of attachment. Glu‑DTPA‑Gd = N-terminal Glu-DTPA-Gd chelate (gadolinium DTPA complex on glutamic acid); Tyr(3-I) = N[C@@H](Cc1ccc(O)c(I)c1)C(=O)O; Glu‑DTPA‑Gd‑PEG(2O) = not defined here; Gd^T = not defined here; Gd^T″ = GdDTPA-thiourea; Cbz = O=C(OCc1ccccc1)*; AEEA = NCCOCCOCC(=O)O

Sequence of rat collagen (acid soluble, type I, rat tail, Upstate 08-115) (rat) (P02454 152-1207 limits assumed, chain 1 of 2): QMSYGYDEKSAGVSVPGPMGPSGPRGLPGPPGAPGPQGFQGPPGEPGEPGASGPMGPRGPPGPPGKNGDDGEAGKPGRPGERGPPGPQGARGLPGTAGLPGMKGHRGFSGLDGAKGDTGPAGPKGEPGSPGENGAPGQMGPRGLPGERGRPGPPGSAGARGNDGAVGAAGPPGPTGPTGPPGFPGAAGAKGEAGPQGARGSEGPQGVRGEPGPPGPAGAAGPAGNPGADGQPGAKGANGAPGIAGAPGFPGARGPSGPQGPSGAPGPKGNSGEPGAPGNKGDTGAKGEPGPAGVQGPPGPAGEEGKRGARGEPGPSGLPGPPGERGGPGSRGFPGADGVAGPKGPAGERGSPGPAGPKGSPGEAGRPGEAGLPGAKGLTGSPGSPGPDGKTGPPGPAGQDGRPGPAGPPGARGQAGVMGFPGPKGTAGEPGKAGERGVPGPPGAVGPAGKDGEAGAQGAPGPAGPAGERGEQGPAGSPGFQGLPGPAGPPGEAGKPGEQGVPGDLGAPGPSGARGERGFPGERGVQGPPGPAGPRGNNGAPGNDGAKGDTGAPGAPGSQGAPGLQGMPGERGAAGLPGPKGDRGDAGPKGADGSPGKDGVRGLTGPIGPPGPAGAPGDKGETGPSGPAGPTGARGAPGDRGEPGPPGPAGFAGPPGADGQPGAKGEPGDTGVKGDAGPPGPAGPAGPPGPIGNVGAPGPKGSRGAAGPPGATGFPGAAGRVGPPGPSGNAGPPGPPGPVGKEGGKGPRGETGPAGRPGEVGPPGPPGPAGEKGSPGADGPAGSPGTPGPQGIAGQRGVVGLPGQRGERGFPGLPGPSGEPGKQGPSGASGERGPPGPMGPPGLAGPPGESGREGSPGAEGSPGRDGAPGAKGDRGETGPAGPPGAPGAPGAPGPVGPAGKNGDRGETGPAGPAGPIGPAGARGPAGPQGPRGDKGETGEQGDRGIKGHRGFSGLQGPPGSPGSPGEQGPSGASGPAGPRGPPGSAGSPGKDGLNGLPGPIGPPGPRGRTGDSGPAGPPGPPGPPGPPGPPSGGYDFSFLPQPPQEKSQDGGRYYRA
Sequence of rat collagen (acid soluble, type I, rat tail, Upstate 08-115) (rat) (P02466 86-1125 limits assumed, chain 2 of 2, further chain): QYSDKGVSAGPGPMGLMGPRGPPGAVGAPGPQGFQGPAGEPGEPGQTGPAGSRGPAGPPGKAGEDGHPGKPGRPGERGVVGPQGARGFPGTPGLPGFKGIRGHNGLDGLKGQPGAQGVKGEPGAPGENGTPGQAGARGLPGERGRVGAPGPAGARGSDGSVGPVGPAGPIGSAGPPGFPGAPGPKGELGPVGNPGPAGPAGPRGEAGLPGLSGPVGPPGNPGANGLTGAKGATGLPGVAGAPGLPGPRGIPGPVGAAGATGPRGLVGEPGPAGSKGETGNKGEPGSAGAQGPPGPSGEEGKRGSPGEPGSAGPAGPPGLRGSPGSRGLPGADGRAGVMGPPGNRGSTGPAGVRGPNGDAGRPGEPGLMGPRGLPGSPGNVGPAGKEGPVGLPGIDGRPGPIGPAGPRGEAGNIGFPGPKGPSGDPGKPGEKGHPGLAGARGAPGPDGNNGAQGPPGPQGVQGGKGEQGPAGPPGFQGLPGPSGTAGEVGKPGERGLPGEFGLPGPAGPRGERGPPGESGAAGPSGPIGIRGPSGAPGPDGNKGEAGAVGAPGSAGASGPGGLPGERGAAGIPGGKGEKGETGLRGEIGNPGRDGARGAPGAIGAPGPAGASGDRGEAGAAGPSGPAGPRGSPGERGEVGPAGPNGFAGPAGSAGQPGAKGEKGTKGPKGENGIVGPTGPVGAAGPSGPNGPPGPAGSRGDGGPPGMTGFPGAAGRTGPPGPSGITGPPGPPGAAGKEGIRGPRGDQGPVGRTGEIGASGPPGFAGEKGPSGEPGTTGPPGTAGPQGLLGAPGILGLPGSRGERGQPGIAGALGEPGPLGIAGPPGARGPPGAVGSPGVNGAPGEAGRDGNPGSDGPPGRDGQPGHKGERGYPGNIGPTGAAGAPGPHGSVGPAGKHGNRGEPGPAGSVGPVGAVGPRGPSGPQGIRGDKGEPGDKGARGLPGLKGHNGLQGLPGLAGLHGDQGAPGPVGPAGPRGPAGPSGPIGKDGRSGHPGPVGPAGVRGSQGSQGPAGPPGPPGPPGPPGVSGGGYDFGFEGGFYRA
T1 sequence (P02452 162-1218 limits assumed, chain 1 of 2): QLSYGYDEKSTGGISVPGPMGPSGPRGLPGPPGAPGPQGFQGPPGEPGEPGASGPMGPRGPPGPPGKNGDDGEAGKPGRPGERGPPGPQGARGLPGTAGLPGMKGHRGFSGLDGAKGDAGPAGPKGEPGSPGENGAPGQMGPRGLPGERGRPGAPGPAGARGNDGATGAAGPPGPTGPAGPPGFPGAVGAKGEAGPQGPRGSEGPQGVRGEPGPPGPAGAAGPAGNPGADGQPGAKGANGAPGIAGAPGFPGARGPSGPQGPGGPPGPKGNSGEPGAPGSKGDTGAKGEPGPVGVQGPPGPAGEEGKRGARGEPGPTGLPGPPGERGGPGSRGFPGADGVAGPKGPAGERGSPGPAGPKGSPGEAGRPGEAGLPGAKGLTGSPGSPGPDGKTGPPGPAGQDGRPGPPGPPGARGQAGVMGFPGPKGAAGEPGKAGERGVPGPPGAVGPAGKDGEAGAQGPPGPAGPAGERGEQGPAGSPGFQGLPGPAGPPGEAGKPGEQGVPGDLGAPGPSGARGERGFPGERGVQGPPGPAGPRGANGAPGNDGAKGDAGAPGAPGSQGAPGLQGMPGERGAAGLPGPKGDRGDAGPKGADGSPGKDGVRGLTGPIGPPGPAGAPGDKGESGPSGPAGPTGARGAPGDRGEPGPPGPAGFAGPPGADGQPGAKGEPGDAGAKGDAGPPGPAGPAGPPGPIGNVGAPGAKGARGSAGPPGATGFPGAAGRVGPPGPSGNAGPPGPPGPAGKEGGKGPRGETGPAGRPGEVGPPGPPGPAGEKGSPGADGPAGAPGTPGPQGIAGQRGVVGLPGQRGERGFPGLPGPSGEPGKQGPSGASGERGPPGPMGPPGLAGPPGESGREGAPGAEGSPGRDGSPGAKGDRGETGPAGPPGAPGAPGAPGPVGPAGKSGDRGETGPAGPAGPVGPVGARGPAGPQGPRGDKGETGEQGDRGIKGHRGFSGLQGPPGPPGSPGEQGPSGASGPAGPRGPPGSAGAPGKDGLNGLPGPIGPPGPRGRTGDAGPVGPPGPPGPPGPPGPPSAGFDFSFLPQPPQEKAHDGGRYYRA
T1 sequence (P08123 80-1119 limits assumed, chain 2 of 2): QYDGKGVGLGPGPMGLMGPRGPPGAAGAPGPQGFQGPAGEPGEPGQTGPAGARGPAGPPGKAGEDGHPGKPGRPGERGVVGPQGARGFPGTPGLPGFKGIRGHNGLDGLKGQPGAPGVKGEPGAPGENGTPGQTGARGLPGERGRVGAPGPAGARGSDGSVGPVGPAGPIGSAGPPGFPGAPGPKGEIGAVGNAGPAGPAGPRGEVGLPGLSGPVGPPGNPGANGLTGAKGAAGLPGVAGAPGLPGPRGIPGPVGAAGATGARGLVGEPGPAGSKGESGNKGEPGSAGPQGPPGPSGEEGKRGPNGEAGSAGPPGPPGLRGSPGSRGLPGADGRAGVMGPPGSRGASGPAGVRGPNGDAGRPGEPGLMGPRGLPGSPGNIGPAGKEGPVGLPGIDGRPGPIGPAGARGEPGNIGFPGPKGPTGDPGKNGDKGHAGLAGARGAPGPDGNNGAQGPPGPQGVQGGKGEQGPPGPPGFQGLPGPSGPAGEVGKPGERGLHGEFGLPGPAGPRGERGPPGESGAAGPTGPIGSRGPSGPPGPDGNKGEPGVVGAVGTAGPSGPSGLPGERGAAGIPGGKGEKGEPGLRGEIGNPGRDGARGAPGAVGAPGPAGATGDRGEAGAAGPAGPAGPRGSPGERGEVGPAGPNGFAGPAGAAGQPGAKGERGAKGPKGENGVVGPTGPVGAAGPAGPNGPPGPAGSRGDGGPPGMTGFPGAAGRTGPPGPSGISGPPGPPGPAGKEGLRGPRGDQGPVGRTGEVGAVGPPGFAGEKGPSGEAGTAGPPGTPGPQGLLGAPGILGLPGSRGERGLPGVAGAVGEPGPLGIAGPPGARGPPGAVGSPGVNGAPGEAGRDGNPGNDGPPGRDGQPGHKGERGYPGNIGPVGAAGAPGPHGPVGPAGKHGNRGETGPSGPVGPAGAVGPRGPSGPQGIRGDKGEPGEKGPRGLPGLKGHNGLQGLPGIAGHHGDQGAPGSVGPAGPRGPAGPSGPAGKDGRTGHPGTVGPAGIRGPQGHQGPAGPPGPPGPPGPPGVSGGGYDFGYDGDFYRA
Sequence of human collagen type I (acid soluble, extracted from placenta, Sigma C7774) (human) (P02452 162-1218 limits assumed, chain 1 of 2): as the sequence (P02452 162-1218 limits assumed, chain 1 of 2) above
Sequence of human collagen type I (acid soluble, extracted from placenta, Sigma C7774) (human) (P08123 80-1119 limits assumed, chain 2 of 2, further chain): as the sequence (P08123 80-1119 limits assumed, chain 2 of 2) above

The molecule FSECVWVNAYQCEYF (disulfide 4-12 (inferred)) [SEQ ID NO: 113] registered a % bound in assay [1] of 3%.

On to GQWTCSGDEYTWHCAYE (not fully specified; Gd^T-GQWTCSGDEYTWHCAYE) [Comp ID 839], for which the % bound in assay [2] was 11%.

TWACDLDEYGGWQCYTG (disulfide 4-14 (inferred)) [SEQ ID NO: 78] had a % bound in assay [1] of 8%.

GQWHCTTRFPHHYCAYG (not fully specified; Gd^T-GQWHCTTRFPHHYCAYG) [Comp ID 855] yielded a % bound in assay [1] of 27%.

Take {Glu‑DTPA‑Gd}-WWGCRQGTGEHWSHCMWF-{AEEA-Glu‑DTPA‑Gd} (cysteine pairing not given here; also: Gd chelated by DTPA at each end) [SEQ ID NO: 195]: the % bound in assay [2] stood at 9%.

Consider {Gd^T″}-GQWTCSGDEYTWACNYE (disulfide 5-14 (inferred)) [Comp ID 833], for which the % bound in assay [1] was 13%; in assay [2], 4%.

Turning to {Gd^T″}-DWTCSGDEYYWHCNYE (disulfide 4-13 (inferred)) [Comp ID 834], the % bound amounted to 22% in assay [1] and 9% in assay [2].

In turn, FWTCELDFRQSWYCYDK (disulfide 4-14 (inferred)) [SEQ ID NO: 79] registered a % bound in assay [1] of 8%.

In assay [1], SWYCNNGSYGQWHCEHR (disulfide 4-14 (inferred)) [SEQ ID NO: 80] had a % bound of 6%.

With DWTCSGDEYRWHCNYE (not fully specified; Gd^T-DWTCSGDEYRWHCNYE) [Comp ID 845], the % bound in assay [2] amounted to 10%.

With ERNCVLNDFRWTCGGD (disulfide 4-13 (inferred)) [SEQ ID NO: 75], the % bound in assay [1] came out at 10%.

In the case of {Gd^T″}-GAWTCSGDEYTWHCNYE (disulfide 5-14 (inferred)) [Comp ID 830], the % bound in assay [1] stood at 26%; in assay [2] it was 11%.

LWTCSMDRNYDWVCGEK (disulfide 4-14 (inferred)) [SEQ ID NO: 82]: the “% bound” value in assay [3] is 3%.

In turn, GWQCFGASDWHCTWV (disulfide 4-12 (inferred)) [SEQ ID NO: 8] came in with a % bound in assay [1] of 9%.

As to YHACYQAGCYIW (disulfide 4-9 (inferred)) [SEQ ID NO: 107], the % bound in assay [2] came out at 6%; in assay [3], 9%.

Regarding SWSCGGDHNAWKCQYS (disulfide 4-13 (inferred)) [SEQ ID NO: 36], the % bound in assay [1] came to 7%.

Take GQWHCTTRFPHHTCLYG (not fully specified; Gd^T-GQWHCTTRFPHHtCLYG) [Comp ID 905]: the % bound in assay [1] came to 6%.

On to FGACDIFPTFHTCPGV (disulfide 4-13 (inferred)) [SEQ ID NO: 76], for which the “% bound” value in assay [3] was 1%.

For DWTCSGDEYTWHCNYE (not fully specified; Gd^T-DWTCSGDEYTWHCNYE) [Comp ID 848], the % bound in assay [2] was determined as 9%.

In the case of YHACYQAGCYIY (disulfide 4-9 (inferred)) [SEQ ID NO: 108], the figures for the % bound in assay [1] and in assay [2] were 5% and 12%, respectively.

In assay [2], {Glu‑DTPA‑Gd}-GGDWTCVGDHKTWKCNFH-NH2 (disulfide 6-15 (inferred)) [Compound ID 1023] showed a % bound of 12%.

Molecule {Gd^T″}-GQWHCTTRFPHHYCLYG[dK](Gd^T″) (disulfide 5-14 (inferred)) [Comp ID 808] displayed a % bound in assay [1] of 25%.

Consider GWQCSGDASVWNCDWI (disulfide 4-13 (inferred)) [SEQ ID NO: 39], for which, in assay [1], the % bound was determined as 6%.

Regarding SWYCDWDDRKGWMCGSD (disulfide 4-14 (inferred)) [SEQ ID NO: 86], the “% bound” value in assay [3] worked out at 2%.

Molecule RWSCVLDADGWVCSDN (disulfide 4-13 (inferred)) [SEQ ID NO: 66] came in with a % bound in assay [1] of 6%.

In the case of {Gd^T}-DWTCSGDE[Tyr(3-I)]TWHCNYE (disulfide 4-13 (inferred); not fully specified (C-terminus); reading uncertain) [Comp ID 846], the % bound in assay [2] was determined as 9%.

Regarding WQVCADSPGVITYCYTY (disulfide 4-14 (inferred)) [SEQ ID NO: 98], the % bound in assay [1] was found to be 5%.

With GQWHCTTDFPHXYCLYG (not fully specified; Gd^T-GQWHCTTDFPH-Dpr-YCLYG) [Comp ID 886], in assay [1], the % bound was found to be 8%.

Consider GQWHCTTRFPHHRCLYG (not fully specified; Gd^T-GQWHCTTRFPHHrCLYG) [Comp ID 902], for which the % bound in assay [1] was found to be 7%.

SWHCFLENHHWMCSDH (disulfide 4-13 (inferred)) [SEQ ID NO: 68] came in with a % bound in assay [1] of 5%.

As to GWQCQGTDSLDWKCLYM (disulfide 4-14 (inferred)) [SEQ ID NO: 77], the % bound in assay [1] was 12%.

The molecule {Gd^T″}-DWTCS[dY]DEYTWHCNYE (disulfide 4-13 (inferred)) [Comp ID 829] came in with a % bound in assay [1] of 20%.

For the molecule KWECVHTKGEWYCETK (disulfide 4-13 (inferred)) [SEQ ID NO: 65], in assay [1], the % bound came out at 7%.

With QWFCEMDEYGKWNCGMM (disulfide 4-14 (inferred)) [SEQ ID NO: 81], in assay [3], the “% bound” value was found to be 3%.

B1: Comp ID 966 (peptide)
peptide: {Gd^T″}-GK([Gly-Gd^T″])WHCTTLFPHHVCLYG
modifications: disulfide 5-14 (inferred); not fully specified (C-terminus); printed as Gd^T-G-K(G.Gd^T)-WHCTTLFPHHVCLYG
On to B1, for which the % bound in assay [2] is 8%.

B2: Comp ID 940 (peptide)
peptide: Cbz-GQWHCTK(Gd^T″)RFPHHYCLYG
modifications: disulfide 5-14 (inferred); not fully specified (C-terminus); printed as cbz-GQWHCT-K(Gd^T)-RFPHHYCLYG
In assay [2], B2 returned a % bound of 8%.

Molecule PWWCHEMPSMCFGF (disulfide 4-11 (inferred)) [SEQ ID NO: 3] displayed a % bound in assay [1] of 2%.

In assay [1], PWTCSGDEYAWHCNYE (Gd^G-PWTCSGDEYAWHCNYe) [Comp ID 824] returned a % bound of 12%.

Regarding {Gd^T″}-GQWTCSGDEYAWHCNY[dE] (disulfide 5-14 (inferred)) [Comp ID 832], the % bound amounted to 12% in assay [1] and 4% in assay [2].

For the molecule GWSCHGDAADWPCQWS (disulfide 4-13 (inferred)) [SEQ ID NO: 38], the % bound in assay [1] came out at 6%.

With GQWHCTTRFPHHXCLYG (not fully specified; Gd^T-GQWHCTTRFPHH-1-nal-CLYG) [Comp ID 904], the % bound in assay [2] amounted to 3%.

For the molecule GWTCSQPGANVWNCTMQ (disulfide 4-14 (inferred)) [SEQ ID NO: 85], the “% bound” value in assay [3] came to 3%.

Take GQWHCTTDYPHHYCLYG (not fully specified; Gd^T-GQWHCTTD-Y(3-Cl)-PHHYCLYG) [Comp ID 895]: the % bound in assay [1] stood at 7%.

In assay [1], LWNCHGTDANWKCVLN (disulfide 4-13 (inferred)) [SEQ ID NO: 37] showed a % bound of 7%.

For the molecule {Glu‑DTPA‑Gd‑PEG(2O)}-GQWTCSGDEYTWHCNY[dE]-NH2 (disulfide 5-14 (inferred); reading uncertain) [Compound ID 1026], in assay [2], the % bound turned out to be 5%.

On to HWSCDLAMDNEWFCSTK (disulfide 4-14 (inferred)) [SEQ ID NO: 84], for which the “% bound” value in assay [3] worked out at 3%.

As to HWTCDQAKGGAWSCSST (disulfide 4-14 (inferred)) [SEQ ID NO: 87], the “% bound” value in assay [3] amounted to 1%.

GWSCHSMDMQWHCDFS (disulfide 4-13 (inferred)) [SEQ ID NO: 67]: the % bound in assay [1] came to 5%.

For the molecule GWACNTTSKGDWECTNL (disulfide 4-14 (inferred)) [SEQ ID NO: 83], the “% bound” value in assay [3] was found to be 3%.
